From US20060140946A1

Biological target: human tumor necrosis factor-alpha (hTNFα) (human) (UniProt P01375)
Assay: cell-based or functional assay

human tumor necrosis factor-alpha (hTNFα) (human), sequence (P01375 77-233): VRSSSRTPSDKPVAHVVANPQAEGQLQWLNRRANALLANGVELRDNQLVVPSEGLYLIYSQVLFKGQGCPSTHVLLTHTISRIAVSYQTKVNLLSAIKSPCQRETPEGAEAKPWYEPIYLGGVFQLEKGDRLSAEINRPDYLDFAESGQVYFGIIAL

B1: chimeric mouse/human IgG1 anti-platelet mAb (7E3) (antibody, INN chains, looked up, V domains shown)
VH: EVQLQQSGTVLARPGASVKMSCEASGYTFTNYWMHWVKQRPGQGLEWIGAIYPGNSDTSYIQKFKGKAKLTAVTSTTSVYMELSSLTNEDSAVYYCTLYDGYYVFAYWGQGTLVTVSA
VL: EIVLTQSPVTLSVTPGDSVSLSCRASRDISNNLHWFQQTSHESPRLLIKYASQSMSGIPSRFSGSGSGTDFTLSINSVETEDFGMYFCQQTNSWPYTFGGGTKLEIK
modifications: IgG1
IL-6 secreted by FS-4 fibroblasts; 4 µg/ml antibody, rhTNF 0.3 ng/ml: 1.6 ng/mL | IL-6 secreted by FS-4 fibroblasts; 4 µg/ml antibody, rhTNF 1.5 ng/ml: 1.96 ng/mL | IL-6 secreted by FS-4 fibroblasts; 4 µg/ml antibody, rhTNF 7.5 ng/ml: 2.16 ng/mL
